{"source": "patent US20170106012A1", "binders": {"B1": {"name": "noggin (protein, UniProt Q13253 28-232, looked up, species assumed)", "Noggin": "QHYLHIRPAPSDNLPLVDLIEHPDPIFDPKEKDLNETLLRSLLGGHYDPGFMATSPPEDRPGGGGGAAGGAEDLAELDQLLRQRPSGAMPSEIKGLEFSEGLAQGKKQRLSKKLRRKLQMWLWSQTFCPVLYAWNDLGSRFWPRYVKVGSCFSKRSCSVPEGMVCKPSKSVHLTVLRWRCQRRGGQRCGWIPIQYPIISECKCSC"}}, "biological_target": "T1, Bone morphogenetic protein 2 (BMP-2), recombinant human (Homo sapiens) (UniProt P12643)", "T1 sequence": "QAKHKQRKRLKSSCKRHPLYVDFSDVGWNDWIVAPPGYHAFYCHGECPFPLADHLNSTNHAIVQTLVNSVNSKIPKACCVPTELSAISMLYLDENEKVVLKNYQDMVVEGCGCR", "test": "cell-based or functional assay", "data": [{"binder": "B1", "values": [{"measurement": "inhibition of BMP-2-induced ALP activity in C2C12 cells; noggin at 30 ng/ml, BMP-2 at 100 ng/ml, no GAG", "value": 14, "unit": "percent"}, {"measurement": "inhibition of BMP-2-induced ALP activity in C2C12 cells; noggin at 30 ng/ml, in the presence of HS+ve", "value": 2, "unit": "percent"}, {"measurement": "inhibition of BMP-2-induced ALP activity in C2C12 cells; noggin at 30 ng/ml, in the presence of HSpm", "value": 4, "unit": "percent"}, {"measurement": "inhibition of BMP-2-induced ALP activity in C2C12 cells; noggin at 100 ng/mL, in the presence of HS-ve", "value": 75, "unit": "percent"}, {"measurement": "inhibition of BMP-2-induced ALP activity in C2C12 cells; noggin at 100 ng/ml, BMP-2 at 100 ng/ml, no GAG", "value": 95, "unit": "percent"}, {"measurement": "inhibition of BMP-2-induced ALP activity in C2C12 cells; noggin at 100 ng/ml, in the presence of HS+ve", "value": 43, "unit": "percent"}, {"measurement": "inhibition of BMP-2-induced ALP activity in C2C12 cells; noggin at 100 ng/ml, in the presence of HSpm", "value": 62, "unit": "percent"}]}]}
